Molecular target: fluorescently labeled SpRpn12 (Schizosaccharomyces pombe) (UniProt P50524)
Assay: fluorescence polarisation

- Kd: 18 µM
Binder: NQFEYGVDPNLDVELALALELSMAEERARQEVAAQKSSEETEDKKMQE (domain or fragment) [SpRpn10 residues 196-243 (UIM-containing C-terminal sequence)]

From article PMC2962499
